Assay results reported in PMC7697625 (Biomolecules, 2020).

Target: the molecule itself
Experiment: AUC; sedimentation velocity, 20 uM (0.25 mg/mL), 20 mM sodium phosphate pH 8.0, 200 mM NaCl, 20 C, 50,000 RPM; monomer and dimer

B1: TNIP1 AHD1-UBAN construct (TNIP1^417-509) (domain or fragment, human, UniProt Q15025 417-509, looked up)
chain: QRLNKALEEALSIQTPPSSPPTAFGSPEGAGALLRKQELVTQNELLKQQVKIFEEDFQRERSDRERMNEEKEELKKQVEKLQAQVTLSNAQLK
notes: pET28a construct; For NMR the protein was 15N-labelled (minimal medium with 15NH4Cl); also called TNIP1 AHD1-UBAN region; AHD1-UBAN domain; source: E. coli BL-21(DE3) Rosetta 2, heat lysis, purified (HisTrap HP, Superdex 75); not shown: His6, C-terminal, kept
stoichiometry N: 2
